The source of these data is publication PMC8605023 (2021).

Some targets named below: NTF2 domain of G3BP1 (human, UniProt Q13283 11-133); SARS-CoV E 1-16; SARS-CoV-2 E 1-16; SARS-CoV NSP3 2019-2038.
Holding throughout (experiment): FP
The target of a further assay is T1, NTF2 domain of G3BP2 (human, UniProt Q9UN86 11-133).
T1 chain: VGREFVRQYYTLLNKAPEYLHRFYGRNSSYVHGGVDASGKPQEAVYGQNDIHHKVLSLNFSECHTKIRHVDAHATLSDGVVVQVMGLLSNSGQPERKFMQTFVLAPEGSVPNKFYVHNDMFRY

For assay [1], the target named is SARS-CoV-2 NSP3 2019-2038.
Assay [2] addresses SARS-CoV NSP14 peptide with the YxxL motif, synthetic (SARS-CoV, UniProt P0C6X7).
Assay [3] concerns the target SARS-CoV-2 NSP14 peptide with the YxxL motif, synthetic (SARS-CoV-2, UniProt P0DTD1).
Assay [4] concerns the target MERS-CoV NSP14 peptide with the YxxL motif, synthetic (MERS-CoV, UniProt K9N7C7).

Chain of NTF2 domain of G3BP1 (Q13283 11-133): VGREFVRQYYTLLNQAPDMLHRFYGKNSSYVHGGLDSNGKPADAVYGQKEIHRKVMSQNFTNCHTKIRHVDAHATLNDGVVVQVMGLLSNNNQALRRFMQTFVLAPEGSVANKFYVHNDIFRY

Regarding APRITFGGPTDSTDNN [SARS-CoV N peptide with the ΦxFG motif, synthetic], the results for the Kd in the assay with NTF2 domain of G3BP1 and with NTF2 domain of G3BP2 were 2.8 µM and 1.7 µM, respectively.
For the molecule APRITFGGPSDSTGSN [SARS-CoV-2 N peptide with the ΦxFG motif, synthetic], the Kd – broadly, the constant that tells how readily two partners part at equilibrium – with NTF2 domain of G3BP2 was determined as 2.8 µM.

B1: FERM domain of Radixin (domain or fragment)
chain: INVRVTTMDAELEFAIQPNTTGKQLFDQVVKTVGLREVWFFGLQYVDSKGYSTWLKLNKKVTQQDVKKENPLQFKFRAKFFPEDVSEELIQEITQRLFFLQVKEAILNDEIYCPPETAVLLASYAVQAKYGDYNKEIHKPGYLANDRLLPQRVLEQHKLTKEQWEERIQNWHEEHRGMLREDSMMEYLKIAQDLEMYGVNYFEIKNKKGTELWLGVDALGLNIYEHDDKLTPKIGFPWSEIRNISFNDKKFVIKPIDKKAPDFVFYAPRLRINKRILALCMGNHELYMRRR
As for B1, the Kd in the assay with SARS-CoV E 1-16 was determined as 11.9 µM; with SARS-CoV-2 E 1-16, 11.9 µM; in assay [1], 38 µM; in the assay with SARS-CoV NSP3 2019-2038, 217 µM.
For APRAVSFADNNDITNT [MERS-CoV N peptide corresponding to the ΦxFG peptide, synthetic], the equilibrium dissociation constant (Kd) with NTF2 domain of G3BP1 is 51 µM; in the assay with NTF2 domain of G3BP2, 26 µM.

B2: clathrin coat adaptor protein AP2M1, tag removed (domain or fragment)
chain: RNELFLDVLESVNLLMSPQGQVLSAHVSGRVVMKSYLSGMPECKFGMNDKIVIEKQGKGTADETSKSGKQSIAIDDCTFHQCVRLSKFDSERSISFIPPDGEFELMRYRTTKDIILPFRVIPLVREVGRTKLEVKVVIKSNFKPSLLAQKIEVRIPTPLNTSGVQVICMKGKAKYKASENAIVWKIKRMAGMKESQISAEIELLPTNDKKKWARPPISMNFEVPFAPSGLKVRYLKVFEPKLNYSDHDVIKWVRYIGRSGIYETR
Consider B2, for which the Kd in assay [2] stood at 1.6 µM; in assay [3], 1.6 µM; in assay [4], 3 µM.
